# Laboratory results from US20030077800A1 (HORMOS MEDICAL, published 2003).
# B1: VP16-ODC fusion protein (human ornithine decarboxylase fused to VP16 AD) (other)
# chain: MNNFGNEEFDCHFLDEGFTAKDILDQKINEVSSSDDKDAFYVADLGDILKKHLRWLKALPRVTPFYAVKCNDSKAIVKTLAATGTGFDCASKTEIQLVQSLGVPPERIIYANPCKQVSQIKYAANNGVQMMTFDSEVELMKVARAHPKAKLVLRIATDDSKAVCRLSVKFGATLRTSRLLLERAKELNIDVVGVSFHVGSGCTDPETFVQAISDARCVFDMGAEVGFSMYLLDIGGGFPGSEDVKLKFEEITGVINPALDKYFPSDSGVRIIAEPGRYYVASAFTLAVNIIAKKIVLKEQTGSDDEDESSEQTFMYYVNDGVYGSFNCILYDHAHVKPLLQKRPKPDEKYYSSSIWGPTCDGLDRIVERCDLPEMHVGDWMLFENMGAYTVAAASTFNGFQRPTIYYVMSGPAWQLMQQFQNPDFPPEVEEQDASTLPVSCAWESGMKRHRAACASASINV
# notes: Negative control in the mammalian two-hybrid assay; also called human ODC
# B2: VP16 AD fused to ARIP4 (amino acids 86-227) (VP16 AD-ARIP4 ID) (other)
# chain: RHQGKILASEDPKKKRAQKPSHMRRNIRKLLREDQLEPVTKAAQQEELERRKRLEQQRKEYAAPIPTVPLEFLPEEIVLRASDGPQLPPRVLAQEVICLDSSSGSEDEKSSRDEVIELSSGEEDTLHIVDSSESVSEEDEEE
# Columns and labels:
# [1] = molecular target: rat androgen receptor expressed from pSG-rAR (rat) (UniProt P15207); assay: cell-based or functional assay
# rat androgen receptor expressed from pSG-rAR (rat), sequence (P15207 whole entry S389L, the tested form may be a part): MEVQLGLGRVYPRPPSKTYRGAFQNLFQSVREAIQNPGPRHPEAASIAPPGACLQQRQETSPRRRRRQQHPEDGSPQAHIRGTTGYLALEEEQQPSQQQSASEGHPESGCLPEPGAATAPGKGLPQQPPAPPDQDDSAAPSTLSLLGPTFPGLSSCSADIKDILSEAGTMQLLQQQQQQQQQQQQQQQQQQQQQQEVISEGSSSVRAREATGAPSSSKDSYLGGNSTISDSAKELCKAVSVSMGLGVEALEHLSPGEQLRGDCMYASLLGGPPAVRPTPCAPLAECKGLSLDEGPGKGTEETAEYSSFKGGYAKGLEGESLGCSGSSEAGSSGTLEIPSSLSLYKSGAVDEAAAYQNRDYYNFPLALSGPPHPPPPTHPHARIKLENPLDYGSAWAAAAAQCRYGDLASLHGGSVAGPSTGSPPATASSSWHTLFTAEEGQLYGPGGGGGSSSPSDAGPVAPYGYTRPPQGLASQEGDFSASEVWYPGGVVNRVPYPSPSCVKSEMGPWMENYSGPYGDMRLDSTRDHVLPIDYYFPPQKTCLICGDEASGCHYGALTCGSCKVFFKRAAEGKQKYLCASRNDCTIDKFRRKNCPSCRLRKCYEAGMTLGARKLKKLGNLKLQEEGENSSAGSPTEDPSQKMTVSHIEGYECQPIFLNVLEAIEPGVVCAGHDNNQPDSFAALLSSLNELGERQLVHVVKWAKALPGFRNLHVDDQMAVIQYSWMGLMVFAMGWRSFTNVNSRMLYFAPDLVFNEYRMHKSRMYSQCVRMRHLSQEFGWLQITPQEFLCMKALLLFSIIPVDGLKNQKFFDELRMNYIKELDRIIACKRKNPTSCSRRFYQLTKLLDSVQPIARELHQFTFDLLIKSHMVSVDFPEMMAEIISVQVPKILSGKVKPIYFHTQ
# [2] = molecular target: T1, rat AR (amino acids 3-902) fused to the DBD of Gal4 (Gal4-AR) (rat, UniProt P04386 1-147; P15207 3-902); assay: mammalian two-hybrid in CV-1 cells, pG5LUC reporter
# T1 construct: domain: DBD;range 3-902; Mammalian two-hybrid bait in CV-1 cells; also called Gal-AR
# [3] = molecular target: T2, LexA-AR ZFR (AR amino acids 554-644) (human, UniProt P10275 554-644); assay: cell-based or functional assay
# T2 sequence (looked up): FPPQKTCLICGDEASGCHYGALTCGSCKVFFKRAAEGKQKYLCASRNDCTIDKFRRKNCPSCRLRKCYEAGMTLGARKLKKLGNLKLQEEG
# [4] = molecular target: T3, LexA-HLBD (amino acids 624-919 of AR) (UniProt P10275 624-919); assay: cell-based or functional assay
# T3 sequence (looked up): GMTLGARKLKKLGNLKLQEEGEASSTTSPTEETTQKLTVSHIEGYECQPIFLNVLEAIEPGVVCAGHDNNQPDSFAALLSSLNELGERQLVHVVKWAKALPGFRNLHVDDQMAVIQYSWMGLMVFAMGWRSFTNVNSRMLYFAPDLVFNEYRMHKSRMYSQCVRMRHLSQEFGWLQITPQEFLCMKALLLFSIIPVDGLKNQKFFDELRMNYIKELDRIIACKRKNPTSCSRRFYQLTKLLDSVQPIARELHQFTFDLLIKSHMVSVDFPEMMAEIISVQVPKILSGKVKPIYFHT
molecule,measurement,setting,value
FLAG-tagged ARIP4 (pFLAG-ARIP4) (from UniProt Q99NG0 1-1467),"AR activity on the probasin promoter (pPB(-285/+32)-LUC, COS-1 cells) (% of that of AR alone)",[1],50 to 60
same,"transcriptional activity of AR on a minimal promoter (ARE4-tk-LUC, COS-1 cells)",[1],3 fold
B1,binding result,[2],no binding
B2,"reporter gene activity (beta-galactosidase, yeast two-hybrid)",[3],~100 fold
same,"reporter gene activity (beta-galactosidase, yeast two-hybrid, with androgen)",[4],4 fold
